Measured values taken from patent US20200397913A1, “AXL-SPECIFIC ANTIBODY-DRUG CONJUGATES FOR CANCER TREATMENT” (GENMAB A/S, priority 2015, published 2020).

How the values were obtained:
M019R cells = test: Patient-derived low passage melanoma culture viability assay; assay type: cell-based, human; details: ADC 8 days
SKMEL28 cells = test: Melanoma cell line viability assay (CellTiter-Glo); assay type: cell-based, human; details: ADC 1×10^−4 to 10 μg/mL, 5 days
SKMEL147 cells = test: Melanoma cell line viability assay (CellTiter-Glo); assay type: cell-based, human; details: ADC 1×10^−4 to 10 μg/mL, 5 days
M016 cells = test: Patient-derived low passage melanoma culture viability assay; assay type: cell-based, human; details: ADC 8 days
A875 cells = test: Melanoma cell line viability assay (CellTiter-Glo); assay type: cell-based, human; details: ADC 1×10^−4 to 10 μg/mL, 5 days
A375R cells = test: Melanoma cell line viability assay (CellTiter-Glo); assay type: cell-based, human; details: ADC 1×10^−4 to 10 μg/mL, 5 days
M082 cells = test: Patient-derived low passage melanoma culture viability assay; assay type: cell-based, human; details: ADC 8 days
SKMEL28R cells = test: Melanoma cell line viability assay (CellTiter-Glo); assay type: cell-based, human; details: ADC 1×10^−4 to 10 μg/mL, 5 days
PC9-ER cells = test: In vitro cytotoxicity assay, erlotinib-resistant NSCLC cell line; assay type: cell-based, human
A431 cells = details: A431 (n = 3), 5 days
A431 tumors = test: Therapeutic A431 xenograft model; assay type: in vivo, SCID mice; details: 3 mg/kg intraperitoneally, model produces high levels of Gas6
Protocol: (§1) Tumor induction was performed by subcutaneous injection of 5×10^6 A431 or LCLC-103H tumor cells (both obtained from Leibniz-Institut—Deutsche Sammlung von Mikroorganismen and Zellkulturen GmbH (DSMZ)) in 200 μL PBS in the right flank of female SCID mice. Treatment was started 14-21 days after tumor cell inoculation, when the average tumor size was >100-200 mm^3 and distinct tumor growth was observed. Mice received a single injection or a total of 4 biweekly intraperitoneal injections with IgG1-AXL-vcMMAE ADCs or control antibody (unconjugated IgG1-b12), as indicated. Tumor volume was determined at least two times per week. Tumor volumes (mm^3) were calculated from caliper (PLEXX) measurements as: 0.52×(length)×(width)2.

LCLC-103H cells = details: 5 days
MDA-MB231 cells = details: MDA-MB231 (n = 2), 5 days
PAXF1657 tumors = test: PAXF1657 pancreas cancer PDX model; assay type: in vivo, NMRI nu/nu mice
Protocol: Human pancreas tumor tissue was subcutaneously implanted in the left flank of 5-7 weeks old female NMRI nu/nu mice. […] At day of randomization (day 0), the 3 ADCs were dosed intravenously (i.v.) at either 4 mg/kg or 2 mg/kg, and the control group received a single dose of IgG1-b12 (4 mg/kg). Tumor volumes (mm^3) were monitored twice weekly and were calculated from caliper (PLEXX) measurements as: 0.52×(length)×(width)^2.

[1] = test system: LCLC-103H xenograft tumors; test: Therapeutic LCLC-103H xenograft model; assay type: in vivo, SCID mice
Protocol: 5×10^6 LCLC-103H (large cell lung carcinoma) tumor cells (obtained from Leibniz-Institut DSMZ-Deutsche Sammlung von Mikroorganismen and Zellkulturen GmbH (DSMZ)) in 200 μL PBS were injected subcutaneously in the right flank of female SCID mice. Starting 14-21 days after tumor cell inoculation, when the average tumor size was >100-200 mm^3 and distinct tumor growth was observed, a single injection with 1 mg/kg (20 μg/mouse) IgG1-AXL-vcMMAE antibodies (as described in Supplementary Example 1) or control (unconjugated IgG1-b12) was given intraperitoneally (100 μL/mouse). Tumor volume was determined at least two times per week. Tumor volumes (mm^3) were calculated from caliper (PLEXX) measurements as: 0.52×(length)×(width)^2.
as §1

CEXF 773 tumors = test: Cervix carcinoma PDX model CEXF 773; assay type: in vivo, NMRI nu/nu mice; details: 4 mg/kg i.v. on day 0 and day 7
Protocol: The anti-tumor activity of IgG1-AXL-183-vcMMAE and IgG1-AXL-726-vcMMAE was evaluated in the patient derived cervix carcinoma xenograft CEXF 773 model in NMRI nu/nu mice (Harlan, Netherlands). Experiments were performed by Oncotest (Freiburg, Germany).
Tumor fragments were obtained from xenografts in serial passage in nude mice. After removal from donor mice, tumors were cut into fragments (4-5 mm diameter) and placed in PBS (with 10% penicillin/streptomycin) until subcutaneous implantation. Mice under isofluorane anesthesia received unilateral, subcutaneous tumor implants in the flank. Tumors were allowed to grow until the tumor volume was 50-250 mm^3.
The treatment groups were: IgG1-b12, IgG1-b12-vcMMAE, IgG1-AXL-183-vcMMAE and IgG1-AXL-726-vcMMAE. The antibodies and ADCs were dosed intravenously (i.v.) at 4 mg/kg on the day of randomization (day 0) and on day 7. Tumor volumes (mm^3) were monitored twice weekly and were calculated from caliper (PLEXX) measurements as: 0.52×(length)×(width)^2.

MDA-MB-231 tumors = test: Orthotopic MDA-MB-231-luc D3H2LN breast cancer xenograft model; assay type: in vivo, SCID mice; details: 4 biweekly doses of 3 mg/kg
Protocol: The anti-tumor activity of IgG1-AXL-183-vcMMAE and IgG1-AXL-726-vcMMAE was evaluated in an orthotopic MDA-MB-231 D3H2LN xenograft model.
MDA-MB-231-luc D3H2LN Bioware cells (mammary gland adenocarcinoma; Perkin Elmer, Waltham, Mass.) were implanted in the mammary fat pad of 6-11 week old, female SCID (C.B-17/IcrPrkdc-scid/CRL) mice (Charles-River) under isofluorane anesthesia. Tumors were allowed to grow and mice were randomized when tumors reached a volume of ^˜325 mm^3. […] The treatment groups were: IgG1-b12, IgG1-b12-vcMMAE, IgG1-AXL-183-vcMMAE and IgG1-AXL-726-vcMMAE. The animals received a total of 4 biweekly doses of 3 mg/kg antibody or ADC starting at the day of randomization. Tumor volumes (mm^3) were monitored twice weekly and were calculated from caliper (PLEXX) measurements as: 0.52×(length)×(width)^2.

[2] = Example 13: 3 mg/kg intraperitoneally

For `CCCS(=O)(=O)Nc1ccc(F)c(C(=O)c2c[nH]c3ncc(Cl)cc23)c1F` [PLX4720, N-(3-(5-chloro-1H-pyrrolo[2,3-b]pyridine-3-carbonyl)-2,4-difluorophenyl)propane-1-sulfonamide, reference compound], the “sensitivity of the culture to the substance” value (shortened to “sensitivity of the culture”) (M019R cells) was “resistant”, the “sensitivity of the cell line to the substance” value (SKMEL28 cells) was “sensitive” and the “sensitivity of the cell line to the substance” value (SKMEL147 cells) was “resistant”. For the same molecule, the “sensitivity of the culture” value (M016 cells) was “resistant”, the “sensitivity of the cell line to the substance” value (A875 cells) was “sensitive” and the “sensitivity of the cell line to the substance” value (A375R cells) was “resistant”. The “sensitivity of the culture” value (M082 cells) was “resistant” and the “sensitivity of the cell line to the substance” value (SKMEL28R cells) was “resistant”.

For `C#Cc1cccc(Nc2ncnc3cc(OCCOC)c(OCCOC)cc23)c1` [erlotinib, reference compound], the “sensitivity of the cell line (cell viability)” value (PC9-ER cells) was “acquired resistance”.

B1: IgG1-AXL-148-vcMMAE: IgG1-AXL-148 conjugated at cysteines to vcMMAE (conjugate)
VH: EVQLLESGGGLVQPGGSLRLSCAASGFTFSSYAMTWVRQAPGKGLEWVSAISISGGSTFYADSVKGRFTISRDNSKNTLYLQMNSLRAEDTAVYYCRGYSGYVYDAFDFWGQGTMVTVSS
VL: DIQMTQSPSSLSASVGDRVTITCRASQGISNWLAWYQQKPEKAPKSLIYAASSLQSGVPSRFSGSGSGTDFTLTISSLQPEDFATYYCQQYNSYPLTFGGGTKVEIK
B1 was tested, and the “Cytotoxicity EC50 Mean” value (A431 cells) was 0.070 µg/mL, the anti-tumor activity (A431 tumors) was “induced growth inhibition” and the “Cytotoxicity EC50” value (LCLC-103H cells) was 0.012 µg/mL. For the same molecule, the “Cytotoxicity EC50 Mean” value (MDA-MB231 cells) was 0.012 µg/mL, the anti-tumor activity (PAXF1657 tumors; 2 mg/kg i.v. at day 0) was “significantly reduced the growth” and the anti-tumor activity (PAXF1657 tumors; 4 mg/kg i.v. at day 0) was “induced tumor regression”. For the same molecule, the anti-tumor activity (PAXF1657 tumors; dose not stated in the sentence (FIG. 10B, 10C)) was “dose-dependent antitumor activity”, the anti-tumor activity ([1]; Example 9: single injection 1 mg/kg intraperitoneally) was “induced tumor regression” and the anti-tumor activity [1, 2] was “induced tumor regression”.

B2: IgG1-AXL-726-vcMMAE: IgG1-AXL-726 (FN2-binder) conjugated to vcMMAE (conjugate)
VH: QVQLQQWGAGLLKPSETLSLTCAIDGGSFSGYYWSWIRQPPGKGLEWIGEISHSGRTNYNPSLKSRVTISIDTSKNQFSLKLSSVAAADTAVYYCARFITMIRGAIITHFDYWGQGALVTVSS
VL: DIQMTQSPSSLSASVGDRVTITCRASQGISSWLAWYQQKPEKAPKSLIYAASSLQSGVPSRFSGSGSGTDFTLTISSLQPEDFATYYCQQYHSYPYTFGQGTKLEIK
For B2, the anti-tumor activity (A431 tumors) was “induced growth inhibition”, the anti-tumor activity (CEXF 773 tumors) was “induced tumor regression” and the anti-tumor activity (MDA-MB-231 tumors) was “induced tumor regression”. The anti-tumor activity [1, 2] was “induced tumor regression”.

B3: IgG1-AXL-183-vcMMAE: IgG1-AXL-183 (FN1-binder) conjugated to vcMMAE (conjugate)
VH: QVQLQQWGAGLLKPSETLSLTCAVYGGSFSGYYWSWIRQPPGKGLEWIGEINQSGSTNYNPSLKSRVTISVDTSKNQFSLKLSSVTAADTSVYYCASGNWDHFFDYWGQGTLVTVSS
VL: DIQMTQSPSSVSASVGDRVTITCRASQGISSWLAWYQHKPGKAPKLLIYATSSLQSGVTSRFSGSGSGTDFTLTISSLQPEDFATYYCQQAKSFPWTFGQGTKVEIK
B3 was tested, and the anti-tumor activity (A431 tumors) was “induced growth inhibition”, the anti-tumor activity (CEXF 773 tumors) was “induced tumor regression” and the anti-tumor activity (MDA-MB-231 tumors) was “induced tumor regression”. The anti-tumor activity [1, 2] was “induced tumor regression”.
